According to patent publication US20220119522A1 (DENALI THERAPEUTICS, published 2022):
Substitutions are numbered along the chain they refer to. No end group written: not given here.

T1: human TREM2 on the cell surface (human, UniProt Q9NZC2 19-230)
T1 sequence: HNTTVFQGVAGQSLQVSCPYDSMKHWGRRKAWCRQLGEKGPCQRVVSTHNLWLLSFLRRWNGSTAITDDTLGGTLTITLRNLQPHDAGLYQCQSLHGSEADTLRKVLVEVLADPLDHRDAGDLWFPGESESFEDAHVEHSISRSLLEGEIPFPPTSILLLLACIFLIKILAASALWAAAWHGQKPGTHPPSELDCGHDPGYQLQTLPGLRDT

T2: human TREM2 full length stalk region peptide (aa 129-172) (human, biotinylated (site not stated))
T2 construct: also called Human TREM2 peptide (aa 129-172); full-length TREM2 stalk peptide
T2 peptide: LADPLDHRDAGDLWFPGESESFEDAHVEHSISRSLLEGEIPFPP

T3: human TREM2 truncated stalk peptide (aa 149-163) (human, also: biotinylated (site not given here))
T3 construct: also called Human TREM2 peptide (aa 149-163); truncated stalk peptide containing the ADAM10/17 cleavage site
T3 peptide: SFEDAHVEHSISRSL

T4: mouse TREM2 full length stalk region peptide (aa 131-169) (mouse, UniProt Q99NH8 131-169, biotinylated (site not stated))
T4 peptide (looked up): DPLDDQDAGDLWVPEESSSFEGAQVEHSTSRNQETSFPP

T5: His-tagged human TREM2 ECD (human, UniProt Q9NZC2 19-172)
T5 construct: Biacore and HDX say only recombinant human TREM2 (ECD); also called recombinant human TREM2; hTREM2
T5 sequence: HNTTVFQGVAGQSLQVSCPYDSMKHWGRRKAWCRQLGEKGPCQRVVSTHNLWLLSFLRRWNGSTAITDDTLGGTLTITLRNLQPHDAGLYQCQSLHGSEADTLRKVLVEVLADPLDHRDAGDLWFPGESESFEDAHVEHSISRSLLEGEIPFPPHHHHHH

T6: human soluble TREM2 (sTREM2) (human, UniProt Q9NZC2 19-157, limits assumed)
T6 construct: Native shed sTREM2; also called sTREM2 in Human CSF; sTREM2 in huTrem2 KI mouse plasma
T6 sequence: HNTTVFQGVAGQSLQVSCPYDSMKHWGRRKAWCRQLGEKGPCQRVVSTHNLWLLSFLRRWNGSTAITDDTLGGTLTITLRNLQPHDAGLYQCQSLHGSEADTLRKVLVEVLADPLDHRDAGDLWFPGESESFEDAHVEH

B1: CL0020107 (antibody, V domains shown)
VH: QVQLQQPGAELVKPGASVKMSCRASGYTFTNYWISWVKQRPGQGLEWIGDIYPHSTSTNYNERFRSKATLTVDKSSTTAYMQLSSLTSEDSAVYYCAREGFGISAWGQGTTLTVSS
VL: QIVLTQSPAIMSASPGEKVTITCSATSSVSYMHWFQQKPGTSPKLWIYSTSNLASGVPARFSGSGSGTSHSLTISRMEAEDAATYYCQQRSSYPLTFGSGTKLELK
notes: also called Clone CL0020107
B2: CL0020188 (antibody, V domains shown)
VH: EVKLLDSGGGLVQAGGSLRLSCAGSGFTFTDFYMSWIRQPPGKAPEWLGVIRNKANGYTAGYNPSVKGRFTISRDNTQNILYLQMNTLRAEDTAIYYCARLTYGFDYWGQGVMVTVSS
VL: DIVMTQGALPNPVPSGESASITCQSSKSLLHSNGKTYLNWYLQRPGQSPQLLIYWMSTRASGVSDRFSGSGSGTDFTLKISSVEAEDVGVYYCQQFLEYPFTFGSGTKLEIK
notes: also called Clone CL0020188
B3: CL0020188-4 (antibody, V domains shown)
VH: EVQLVESGGGLVQPGGSLRLSCAGSGFTFTDFYMSWVRQAPGKGPEWLSVIRNKANGYTAGYNPSVKGRFTISRDNSKNTLYLQMNSLRAEDTAVYYCARLTYGFDYWGQGTLVTVSS
VL: DIVMTQTPLSLPVTPGEPASISCQSSKSLLHSTGKTYLNWYLQKPGQSPQLLIYWMSTRASGVPDRFSGSGSGTDFTLKISRVEAEDVGVYYCQQFLEYPFTFGQGTKVEIK
notes: Humanized variant of CL0020188 (hVH NG/3 m, hVL TG/graft); also called Clone CL0020188-4
B4: CL0020188-7 (antibody, V domains shown)
VH: B3 VH with G24A, P45L, L48V, G57A
VL: B3 VL
notes: Humanized variant of CL0020188 (hVH NA/graft, hVL TG/graft); also called Clone CL0020188-7
B5: CL0020123-5 (antibody, V domains shown)
VH: QVQLVQSGAEVKKPGASVKVSCKASGFSIEDFYIHWVRQAPGQGLEWMGWIDPEQGESKYAPKFQGRATITADTSTSTAYMELSSLRSEDTAVYYCHADHGNYGSTMDYWGQGTLVTVSS
VL: DIQMTQSPSSLSASVGDRVTITCHASQHINVWLSWYQQKPGKAPKLLIYKASNLHTGVPSRFSGSGSGTDFTLTISSLQPEDFATYYCQQGQTYPRTFGQGTKVEIK
notes: Humanized variant of CL0020123 (hVH QGES/2 m, Vk graft); also called Clone CL0020123-5
B6: CL0020123-7 (antibody, V domains shown)
VH: B5 VH with Q55N, A68V
VL: B5 VL
notes: Humanized variant of CL0020123 (hVH NGES/1 m, Vk graft); also called Clone CL0020123-7
B7: Reference antibody #3 (antibody, V domains shown)
VH: QVQLVQSGAEVKKPGASVKVSCKASGYAFSSQWMNWVRQAPGQRLEWIGRIYPGGGDTNYAGKFQGRVTITADTSASTAYMELSSLRSEDTAVYYCARLLRNQPGESYAMDYWGQGTLVTVSS
VL: DVVMTQSPDSLAVSLGERATINCRSSQSLVHSNRYTYLHWYQQKPGQSPKLLIYKVSNRFSGVPDRFSGSGSGTDFTLKISRVEAEDVGVYYCSQSTRVPYTFGQGTKLEIK

Legend:
[1] = biological target: T1, human TREM2 on the cell surface; experiment: cell-based or functional assay
[2] = biological target: T1, human TREM2 on the cell surface; experiment: cell binding, human macrophages, dose titration
[3] = biological target: T2, human TREM2 full length stalk region …; experiment: fluorescence polarization assay with TREM2 stalk peptide and ADAM17
Method: The ability of anti-TREM2 antibodies to inhibit TREM2 stalk peptide cleavage by ADAM17 was also analyzed using a fluorescence polarization assay. TREM2 stalk peptides were first prepared in assay buffer (25 mM Tris pH 7.5, 2.5 μM ZnCl₂, 0.005% Brij-35) with streptavidin. Anti-TREM2 antibodies were then pre-incubated with TREM2 stalk peptides for 30 minutes at room temperature. After the pre-incubation period, ADAM17 (R&D systems, Catalog No. 930-ADB) was added and incubated with the peptides for 20 hours at 37° C. The following day, samples were further diluted in assay buffer and transferred to a black opaque 384-well plate. Fluorescence polarization was subsequently measured on Perkin Elmer EnVision plate reader. The fluorescence polarization of TREM2 stalk peptides pre-incubated with anti-TREM2 antibody was compared to fluorescence polarization of full-length TREM2 stalk peptide and enzyme control (full-length TREM2 stalk peptide with ADAM17).

[4] = biological target: T2, human TREM2 full length stalk region …; experiment: ELISA on biotinylated peptide captured by streptavidin; A450 normalised to isotype control
How it was run: (§1)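 Sandwich ELISA: biotinylated TREM2 stalk peptides captured on streptavidin-coated plates, antibodies added for 1 h in 1% BSA/PBS, binding detected with anti-human kappa-HRP and TMB at A450. Values expressed as fold over isotype-control background.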

[5] = biological target: T3, human TREM2 truncated stalk peptide (aa …); experiment: as above
How it was run: as §1

[6] = biological target: T4, mouse TREM2 full length stalk region …; experiment: as above
How it was run: as §1

[7] = biological target: T5, His-tagged human TREM2 ECD; experiment: SPR (Biacore), antibody captured via anti-human Fab, recombinant TREM2 ECD injected, 1:1 fit
How it was run: (§2)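 Antibodies captured on a CM5 chip via anti-human Fab, then 3-fold serial dilutions of recombinant human or cynomolgus TREM2 ECD injected at 30 μL/min in HBS-EP+. Association 300 s, dissociation 600+ s, blank-cell subtracted; kon and koff from simultaneous 1:1 Langmuir fit.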

[8] = biological target: T7, recombinant cynomolgus TREM2 ECD (cynomolgus); experiment: as above
T7 construct: extracellular domain; also called cyno TREM2
How it was run: as §2

[9] = biological target: T1, human TREM2 on the cell surface; experiment: flow cytometry, dose-titrated binding to HEK293-H6 cells
[10] = biological target: T5, His-tagged human TREM2 ECD; experiment: SPR (Biacore); Table 5 run, parent beside its humanized variants
[11] = biological target: T5, His-tagged human TREM2 ECD; experiment: SPR (Biacore)
[12] = biological target: T5, His-tagged human TREM2 ECD; experiment: SPR (Biacore); remark: listed apart in the source
Method: (§3) Surface plasmon resonance (Biacore™ 8K instrument) was used to measure anti-TREM2 antibody affinities for human and cynomolgus TREM2 ECD. Anti-TREM2 antibodies were captured using Human Fab Capture Kit (GE Healthcare Life Sciences, Catalog No. 28958325) on a Biacore Series S CM5 sensor chip (GE Healthcare Life Sciences, Catalog No. 29149604). Serial 3-fold dilutions of recombinant human or cynomolgus TREM2 were injected at a flow rate of 30 μL/min. Antibody binding was monitored for 300 seconds, followed by monitoring of antibody dissociation for 600+seconds in HBS-EP+ running buffer (GE Healthcare Life Sciences, Catalog No. BR100669). The binding response was corrected by subtracting the RU value from a blank flow cell. A 1:1 Languir model of simultaneous fitting of kₒₙ and koff was used for kinetics analysis. […]

[13] = biological target: T7, recombinant cynomolgus TREM2 ECD; experiment: SPR (Biacore)
Method: as §3

[14] = biological target: T6, human soluble TREM2 (sTREM2); experiment: MSD assay: sTREM2 captured from healthy human CSF, sulfo-tagged antibody titrated
Method: (§4) The affinity of anti-TREM2 antibodies to human TREM2 and cynomolgus TREM2 were measured by Biacore (described in Example 1). The potency of anti-TREM2 antibodies were measured in healthy human volunteer CSF samples (Innovative Research) and healthy cynomolgus monkey CSF samples (Worldwide Primates), by MSD assay. The potency of each antibody was determined by its EC50. Briefly, MSD GOLD 96-well small spot streptavidin plates (MSD, Cat. No. L45SA) coated with capture antibody (biotinylated goat anti-human TREM2, R&D Systems, Cat. No. BAF1828) was incubated with biofluid samples diluted 1:3 in Assay Buffer (25% (v/v) MSD Blocker A (MSD, Cat. No. R93BA-A), 75% (v/v) TBST) for one hour at room temperature. After rinsing the wells with TBST, sulfo-tagged anti-TREM2 antibody was added in a serial dilution (4×dilution over 11 points) to the wells of the plate and incubated for one hour at room temperature. The wells were washed with TBST, and MSD Read Buffer (MSD, Cat. No. R92TC-3) was added to the wells. Signal from the samples were measured using an MSD Meso Sector 5600 device. EC50 values for each antibody was determined by four-parameter variable slope non-linear regression. The variable regions of reference antibody #1 are represented by SEQ ID NOS:344 and 345. The variable regions of reference antibody #2 are represented by SEQ ID NOS:346 and 347. The variable regions of reference antibody #3 are represented by SEQ ID NOS:348 and 349.

[15] = biological target: T8, cynomolgus soluble TREM2 (sTREM2) (cynomolgus); experiment: MSD assay: sTREM2 captured from healthy cynomolgus CSF, sulfo-tagged antibody titrated
T8 construct: also called sTREM2 in Cyno CSF
Method: as §4

| Binder | NFAT EC50 (nM), plate coated mAb [1] | Survival EC50 (nM), plate coated mAb, human macrophages [1] | pSyk activation (human macrophages) EC50 (nM) [1] | EC50 [2] | binding result [3] | fold over background (A450) [4] | fold over background (A450) [5] | fold over background (A450) [6] | Kd [7] | Kd [8] | EC50 [9] | Kd [10] | Kd [11] | Kd [12] | Kd [13] | EC50 [14] | EC50 [15] |
| --- | --- | --- | --- | --- | --- | --- | --- | --- | --- | --- | --- | --- | --- | --- | --- | --- | --- |
| B1 | 10.9 nM | 0.53 nM | 28.5 nM | 4.4 nM | no binding | 1.7 fold | 1.4 fold | 1.3 fold | 1.47 nM | 104 nM | – | – | – | – | – | – | – |
| B2 | 91.2 nM | 2.4 nM | 7.7 nM | 0.5 nM | – | 51 fold | – | 33 fold | 5.2 nM | 2 nM | 0.44 nM | 9.5 nM | – | – | – | – | – |
| B3 | – | – | – | – | – | – | – | – | – | – | 0.44 nM | – | 4.8 nM | 1.4 nM | 1.5 nM | 0.29 nM | 0.28 nM |
| B4 | – | – | – | – | – | – | – | – | – | – | 0.68 nM | – | 10 nM | 3.3 nM | 2.8 nM | 0.75 nM | 0.72 nM |
| B5 | – | – | – | – | – | – | – | – | – | – | 0.37 nM | – | 0.44 nM | 0.63 nM | 9.3 nM | 1 nM | 49.4 nM |
| B6 | – | – | – | – | – | – | – | – | – | – | 0.19 nM | – | 0.15 nM | 0.08 nM | 9.4 nM | 0.54 nM | 16.9 nM |
| B7 | – | – | – | – | – | – | – | – | – | – | – | – | – | 8.7 nM | 9.2 nM | 7.25 nM | 33.7 nM |
